According to patent US10570379B2, “Polypeptides for carbon-carbon bond formation and uses thereof” (INVISTA North America S.à.r.l., priority 2015, dated 2020):

Legend:
[1] = Solubility of the expressed protein (Table 3); conditions: protein expressed in E. coli
Procedure: From a fresh LB plate containing the desired clone transformant, one colony (or small scratch) was picked to inoculate 25 mL of LB supplemented with the relevant antibiotic and the pre-culture was incubated overnight at 37° C., 230 rpm. The following morning, the TB auto-induced medium (Merck/Code product: 71491-5) was prepared by mixing 60 g TB/L supplemented with 10 mL Glycerol/L of TB and microwaved during 3+2 minutes at full power. The TB was cooled down before use and splitting it in sterile flasks. Then, the pre-culture incubated overnight in LB was centrifuged and the supernatant discarded. The obtained pellet was resuspended with 5 mL of freshly prepared TB medium and used to inoculate 500 mL of TB dispensed in sterile flasks and supplemented with the appropriate antibiotic. The inoculated medium was incubated at 28° C. for at least 20 h, 230 rpm.
The culture was centrifuged at least at 3000 g/20 min/4° C. and the pellet used immediately or stored at −80′C.
The pellets (fresh or thawed) were resuspended in 10 to 20 mL of Buffer A (50 mM Hepes+150 mM NaCl+40 mM Imidazole+5% Glycerol−pH 7.5). The resuspended cells were then sonicated in ice for, 5 min at 37% Amplitude with 5″ ON and 15″ OFF sonication pulse. The sonicated cells were centrifuged for at least 20 min at 15500 g and 4° C. The supernatant containing the soluble fraction of proteins was recovered, filtered using 0.45 or 0.2 um filters, and used for His-trap protein purification.

[2] = Screen for dual transferase/ketothiolase activity with acetyl-CoA and sodium acrylate, LC-MS detection; type: biochemical; conditions: for ketothiol-product: 3-oxopent-4-enoyl-CoA via thiolase activity; for thiol-product: propenoyl-CoA via transferase activity
Procedure: (§1) Acetyl-CoA was used at a final concentration of 1.5 mM and 30 mM of the substrate being studied (e.g. carboxylic acid salts, such as sodium acrylate) or 1.5 mM of propionyl-CoA in 50 mM Hepes buffer (pH 7.5). The reaction was started by addition of 0.5 mg/mL of YdiF pure protein or mutants to a final volume of 250 μL and incubated for 1 to 10 hours at 30° C.
Two controls were made from similar mixture except that the enzymes were inactivated by heating-up at 95° C. for 20 min or they were replaced by Buffer C.
(§2) All samples were prepared in triplicate and spun down at 15000 g for 20 min at 4° C. Detection of the thiol product (e.g. acryloyl-CoA) synthesized from CoA-transferase activity and the keto-thiol product (e.g. 3-oxopent-4-enoyl-CoA) due to putative thiolase activity of YdiF (or homologues) was carried out by Liquid Chromatography coupled to a qTof-Mass spectrometry (in positive mode), using a C18 column (Zorbax Eclipse C18, 2.1×50 mm, 1.8μ, Agilent, code product: 959757-902) and a gradient of 10 mM ammonium acetate and acetonitrile as mobile phase.
YdiF from Clostridium propionicum belongs to the enzymatic class EC2.8.3.8. Other members of this enzyme class with similar structural features to YdiF, as well as proteins with a CoA-transferase activity from close-by enzymatic classes, were screened for dual transferase/ketothiolase activity as described in Example 2. Acetyl-CoA and sodium acrylate were provided as substrates. LC-MS was used to detect the thiol-product (propenoyl-CoA) synthesized via the transferase activity and the ketothiol-product (3-oxopent-4-enoyl-CoA) synthesized via the thiolase activity, as described in Example 2.

[3] = Substrate specificity, 4-Hydroxybutyrate with acetyl-CoA, LC-MS; type: biochemical; conditions: substrate 4-Hydroxybutyrate + acetyl-CoA
Procedure: as §1, §2
(§3) To study the substrate specificity of YdiF, several commercially available substrates were provided to YdiF (and homologues) in combination with acetyl-CoA, as described in Example 2. LC-MS was used to detect the thiol-product synthesized via the transferase activity and the ketothiol-product synthesized via the thiolase activity.
4-Hydroxybutyrate was used as a substrate with acetyl-CoA for protein 244 and the corresponding products from the transferase and ketothiolase activities of protein 244 were detected.

[4] = Substrate specificity, propionate with acetyl-CoA, LC-MS; type: biochemical
Procedure: as §1, §2, §3

[5] = Substrate specificity, 3-butenoate with acetyl-CoA, LC-MS; type: biochemical; conditions: substrate 3-butenoate + acetyl-CoA
Procedure: as §1, §2, §3

[6] = Substrate specificity, 6-heptenoate with acetyl-CoA, LC-MS; type: biochemical; conditions: substrate 6-heptenoate + acetyl-CoA
Procedure: as §1, §2, §3

[7] = Substrate specificity, 2-hexenoate with acetyl-CoA, LC-MS; type: biochemical; conditions: substrate 2-hexenoate + acetyl-CoA
Procedure: as §1, §2, §3

[8] = Substrate specificity, 4-pentenoate with acetyl-CoA, LC-MS; type: biochemical; conditions: substrate 4-pentenoate + acetyl-CoA
Procedure: as §1, §2, §3

[9] = Substrate specificity, butyrate with acetyl-CoA, LC-MS; type: biochemical
Procedure: as §1, §2, §3

[10] = Activity of YdiF mutant enzymes (evaluation of potential active sites); type: biochemical; conditions: studied as in Example 2
Procedure: YdiF mutants were prepared using the relevant primers to introduce the mutated bases via the Quick change lightning kit (Agilent, code product: 210518-5), and cloned into E. coli. In addition, all the proteins used in this experiment have the following extra amino acids added in the N-terminal extremity of the original protein sequence (SEQ ID NO:1): […]. Those additional amino acids correspond to: two amino acids (M and G), a 6×His-tag followed by a 3 amino acids linker (SSG), and a specific proteolytic cleavage site (thrombin site, underlined) (SEQ ID NO: 22). All the sequences were confirmed by DNA sequencing.
as §1, §2
Mutations were introduced as described in Example 1 at the following positions previously found to be potentially involved in the active site of other β-ketothiolases: C258A, S60A, C112A, S38A, C390A. Activity of the mutant enzymes was studied as described in Example 2.
(§4) Mutations were introduced as described in Example 1 to replace the glutamate in position 324 of YdiF (see Selmer et al., 2002) with glycine (mutant E324G) or leucine (E324L). Activity of the mutant enzymes was studied as described in Example 2.

[11] = Mutant E324G provided with propionyl-CoA and acetyl-CoA; type: biochemical; conditions: propionyl-CoA + acetyl-CoA
Procedure: as §1, §2, §4

B1: Bdigene 0244: 4-Hydroxybutyrate-CoA transferase from Clostridium aminobutyricum, Uniprot Q9RM86, SEQ ID NO: 19 (protein, listed as Clostridium aminobutyricum)
chain: MDWKKIYEDRTCTADEAVKSIKSGDRVLFAHCVAEPPVLVEAMVANAAAYKNVTVSHMVTLGKGEYSKPEYKENFTFEGWFTSPSTRGSIAEGHGQFVPVFFHEVPSLIRKDIFHVDVFMVMVSPPDHNGFCCVGVSSDYTMQAIKSAKIVLAEVNDQVPVVYGDTFVHVSEIDKFVETSHPLPEIGLPKIGEVEAAIGKHCASLIEDGSTLQLGIGAIPDAVLSQLKDKKHLGIHSEMISDGVVDLYEAGVIDCSQKSIDKGKMAITFLMGTKRLYDFAANNPKVELKPVDYINHPSVVAQCSKMVCINACLQVDFMGQIVSDSIGTKQFSGVGGQVDFVRGASMSIDGKGKAIIAMPSVAKKKDGSMISKIVPFIDHGAAVTTSRNDADYVVTEYGIAEMKGKSLQDRARALINIAHPDFKDELKAEFEKRFNAAF
Solubility [1]: ✓
ketothiol-product [2]: ✓
thiol-product [2]: ✓
ketothiol-product ([3]; listed as Protein 244): ✓
thiol-product ([3]; listed as Protein 244): ✓
ketothiol-product ([3]; listed as protein 244): detected
thiol-product ([3]; listed as protein 244): detected

B2: Bdigene 237: Acetate/Propionate CoA-transferase (YdiF) from Clostridium propionicum, Uniprot Q9L3F7, SEQ ID NO: 1 (protein, listed as Clostridium propionicum)
chain: MRKVPIITADEAAKLIKDGDTVTTSGFVGNAIPEALDRAVEKRFLETGEPKNITYVYCGSQGNRDGRGAEHFAHEGLLKRYIAGHWATVPALGKMAMENKMEAYNVSQGALCHLFRDIASHKPGVFTKVGIGTFIDPRNGGGKVNDITKEDIVELVEIKGQEYLFYPAFPIHVALIRGTYADESGNITFEKEVAPLEGTSVCQAVKNSGGIVVVQVERVVKAGTLDPRHVKVPGIYVDYVVVADPEDHQQSLDCEYDPALSGEHRRPEVVGEPLPLSAKKVIGRRGAIELEKDVAVNLGVGAPEYVASVADEEGIVDFMTLTAESGAIGGVPAGGVRFGASYNADALIDQGYQFDYYDGGGLDLCYLGLAECDEKGNINVSRFGPRIAGCGGFINITQNTPKVFFCGTFTAGGLKVKIEDGKVIIVQEGKQKKFLKAVEQITFNGDVALANKQQVTYITERCVFLLKEDGLHLSEIAPGIDLQTQILDVMDFAPIIDRDANGQIKLMDAALFAEGLMGLKEMKS
ketothiol-product [4]: ✓
thiol-product [4]: ✓
ketothiol-product [5]: ✓
thiol-product [5]: ✓
ketothiol-product [6]: ✓
thiol-product [6]: ✓
ketothiol-product [2]: ✓
thiol-product [2]: ✓
ketothiol-product [7]: ✓
thiol-product [7]: ✓
ketothiol-product [8]: ✓
thiol-product [8]: ✓
ketothiol-product [9]: ✓
thiol-product [9]: ✓

B3: Bdigene 0344: Succinyl-CoA: acetate CoA-transferase from Acetobacter aceti, Uniprot B3EY95 (protein, UniProt B3EY95 1-505, looked up)
Succinyl-CoA:acetate …: MTERIRNVALRSKVCPAETASELIKHGDVVGTSGFTGAGYPKEVPKALAQRMEAAHDRGEKYQISLITGASTGPQLDGELAKANGVYFRSPFNTDATMRNRINAGETEYFDNHLGQVAGRAVQGNYGKFNIALVEATAITEDGGIVPTSSVGNSQTFLNLAEKVIIEVNEWQNPMLEGIHDIWDGNVSGVPTRDIVPIVRADQRVGGPVLRVNPDKIAAIVRTNDRDRNAPFAAPDETAKAIAGYLLDFFGHEVKQNRLPPSLLPLQSGVGNVANAVLEGLKEGPFENLVGYSEVIQDGMLAMLDSGRMRIASASSFSLSPEAAEEINNRMDFFRSKIILRQQDVSNSPGIIRRLGCIAMNGMIEADIYGNVNSTRVMGSKMMNGIGGSGDFARSSYLSIFLSPSTAKGGKISAIVPMAAHVDHIMQDAQIFVTEQGLADLRGLSPVQRAREIISKCAHPDYRPMLQDYFDRALKNSFGKHTPHLLTEALSWHQRFIDTGTMLPS
Solubility [1]: ✓
ketothiol-product [2]: ✓
thiol-product [2]: ✓

B4: Bdigene 0345: Succinyl-CoA--D-citramalate CoA-transferase from Chloroflexus aurantiacus, Uniprot A9WGE3 (protein, UniProt A9WGE3 1-402, looked up)
Succinyl-CoA--D-citramalate …: MSSQRPPRPLDDVRVLELGAFLAGPFCGQLLADFGAEVIKVEPPGKGDPMREWGRHRYKGRTLWWPVLARNKKSITIDLRTPEGQALVKRLVPHVDMVLENFRPGTLEEWGLGWEELHALNPGLIMIRVSGFGQTGPYRDKAGFGSIGEAMGGIRAITGFPDRPPTRIGISIGDSLAATFAALGALVALHQRQRSGQGQVVDIGIYEGVLALMESMIPEYQLTGHIRERTGNILPNVAPSNIYPTADGSWFVIGANADTIFTRLAQAMGQPELATDPRFATHQARGEHQAELDDLIAAWTLNYTADQLQVMMDEYGVPAGRIYTAKEMLSDPHFIARQSIIGVHDPDLGEIKMQNVVPRLSATPGGVDWTGPALGQHNREIFTDLLGLTEDDLAMLQAKRVI
Solubility [1]: ✓
ketothiol-product [2]: ✓
thiol-product [2]: ✓

B5: E324G: YdiF mutant, glycine for the glutamate in position 324, SEQ ID NO: 3 (protein)
chain: MGHHHHHHSSGLVPRGSMRKVPIITADEAAKLIKDGDTVTTSGFVGNAIPEALDRAVEKRFLETGEPKNITYVYCGSQGNRDGRGAEHFAHEGLLKRYIAGHWATVPALGKMAMENKMEAYNVSQGALCHLFRDIASHKPGVFTKVGIGTFIDPRNGGGKVNDITKEDIVELVEIKGQEYLFYPAFPIHVALIRGTYADESGNITFEKEVAPLEGTSVCQAVKNSGGIVVVQVERVVKAGTLDPRHVKVPGIYVDYVVVADPEDHQQSLDCEYDPALSGEHRRPEVVGEPLPLSAKKVIGRRGAIELEKDVAVNLGVGAPEYVASVADEEGIVDFMTLTAGSGAIGGVPAGGVRFGASYNADALIDQGYQFDYYDGGGLDLCYLGLAECDEKGNINVSRFGPRIAGCGGFINITQNTPKVFFCGTFTAGGLKVKIEDGKVIIVQEGKQKKFLKAVEQITFNGDVALANKQQVTYITERCVFLLKEDGLHLSEIAPGIDLQTQILDVMDFAPIIDRDANGQIKLMDAALFAEGLMGLKEMKS
transferase activity [10]: Abolition of transferase activity
keto-thiol product (3-oxopentanoyl-CoA) [11]: presence of the keto-thiol product

B6: Bdigene 272: Acetate CoA-transferase YdiF from Peptostreptococcaceae bacterium oral taxon, Uniprot U2L5C9, SEQ ID NO: 5 (protein)
chain: MAKFVTLEEAVSVVKNGDTVATTGFVQVANPEALEWALGKRFEETKEPRDLTLFYCAGQGDGDCRAVNHFAKEGMLKRVVAGHFNMAPLLRQFISDNKCEAYNVPQGVLCNMVRDIAAKKPGVISHVGLNTFADPRIEGCKINLVTKEDIVELMMINGEEKLFYKTFPLTIAFIKGTYADERGNVTLENEGIPSEATSIAQSVHNCGGKVIVQVEKVVAAGTLDPKLVKVPGIYVDYIVQVDDPSMRQQCYGVDYEPELAGNVYIPLSDIPLKTPLNERKIIARRGAFEIRKGNVGNLGIGVPEVVSEVVSEEGITDWLTLTVEVGPVGGSPQGKNRFGTAINAEAILDQPYQFDFYDGGGLDIAYLGLAQADAKGNLNVSKFGDRVAGCGGFIDISQNSKAVVFCGSFTAGGLKVEVNDGKLNIVQEGKVKKFVNKVQQITFSGEYARKTGQRVFYVTERAVFQMKPEGLTLIEIAPGVDLEKDVLNQMEFKPLIAKDLKLMDERIFRPGPMGIKNDN
Solubility [1]: ✓
ketothiol-product [2]: ✓
thiol-product [2]: ✓
